± gives the uncertainty stated by the source.

The values below come from the supplement of paper PMC7877785.

A short description of the data set: self-splicing fitness, log relative to wild type (ln ratio); higher = more splicing; Tetrahymena group I intron in knt gene, E. coli kanamycin selection, DiMSum; sequences stand for … in CUCUCU…GGAGGGAAAAGUUAUCAGGCAUGCACCUGGUAGCUAGUCUUUAAACCAAUAGAUUGCAUCGGUUUAAAAGGCAAGACCGUCAAAUUGCGGGAAAGGGGUCAACAGCCGUUCAGUACCAAGUCUCAGGGGAAACUUUGAGAUGGCCUUGCAAAGGGUAUGGUAAUAAGCUGACGGACAUGGUCCUAACCACGCAGCCAAGUCCUAAGUCAACAGAUCUUCUGUUGAUAUGGAUGCAGUUCACAGACUAAAUGUCGGUCGGGGAAGAUGUAUUCUUCUCAUAAGAUAUAGUCGGACCUCUCCUUAAUGGGAGCUAGCGGAUGAAGUGAUGCAACACUGGAGCCGCUGGGAACUAAUUUGUAUGCGAAAGUAUAUUGAUUAGUUUUGGAGUACUCGUGGUCG
In short, it runs like this:
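Fitness was computed with DiMSum as the error-weighted combination of replicate fold changes, kanamycin versus none, each normalised to wild type. The library randomised all eight intron nucleotides of the P1ex region, with the intron placed in the knt kanamycin-resistance gene on pET-22b(+) in E. coli BL21(DE3). Six replicate transformations were grown overnight at 37°C or 30°C on LB agar with or without 25 μg/mL kanamycin, plus 100 μg/mL carbenicillin, 50 μM IPTG and 0.2% rhamnose. Pooled colonies were amplicon-sequenced on an Illumina HiSeq 2500.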

For AGGCAGCAAUAUUACGGGAC, the “self-splicing fitness (ln)” value runs as follows: (30 °C) -3.48 ± 0.23; (37 °C) -1.94 ± 0.19.

As to GGAUAGCAAUAUUACGAAUC, the “self-splicing fitness (ln)” value is, setting by setting: (30 °C) -1.72 ± 0.088; (37 °C) -1.8 ± 0.12.

Consider CAACAGCAAUAUUACGAGCG, for which the “self-splicing fitness (ln)” value is, setting by setting: (30 °C) -0.235 ± 0.051; (37 °C) 0.702 ± 0.077.

Consider UUAGAGCAAUAUUACGCAGC, for which the “self-splicing fitness (ln)” value (30 °C) is -3.08 ± 0.35. As to GUUGAGCAAUAUUACGAACA, the “self-splicing fitness (ln)” value by setting is: (30 °C) -2.67 ± 0.4; (37 °C) -1.69 ± 0.32.

With UGCGAGCAAUAUUACGUGGG, the “self-splicing fitness (ln)” value was -4.32 ± 0.43 (30 °C) and -2.69 ± 0.23 (37 °C).

For the sequence ACCAAGCAAUAUUACGAUAU, the “self-splicing fitness (ln)” value (30 °C) was -3.22 ± 0.11 and the “self-splicing fitness (ln)” value (37 °C) is -2.17 ± 0.095. The corresponding values for GCUGAGCAAUAUUACGGCGA are -1.43 ± 0.16 and -1.56 ± 0.2. Taken in the same sequence, the figures for AAACAGCAAUAUUACGGUGC were -2.97 ± 0.11 and -3.4 ± 0.17. Taken in the same sequence, the figures for GCGGAGCAAUAUUACGUCGA were -2.59 ± 0.32 and -1.83 ± 0.24. With UAGCAGCAAUAUUACGAAAU, the “self-splicing fitness (ln)” value (30 °C) was -1.96 ± 0.24 and the “self-splicing fitness (ln)” value (37 °C) is -1.66 ± 0.28. As to GAGCAGCAAUAUUACGGGCA, the “self-splicing fitness (ln)” value (30 °C) was -1.48 ± 0.17 and the “self-splicing fitness (ln)” value (37 °C) is -0.674 ± 0.13. Regarding UUGGAGCAAUAUUACGUCGG, the “self-splicing fitness (ln)” value (30 °C) is -2.64 ± 0.26 and the “self-splicing fitness (ln)” value (37 °C) was -0.784 ± 0.19. Taken in the same sequence, the figures for UAUCAGCAAUAUUACGUAAG were -2.16 ± 0.16 and -1.09 ± 0.17.

For AUCAAGCAAUAUUACGAAGU, the “self-splicing fitness (ln)” value was -2.52 ± 0.11 (30 °C) and -1.22 ± 0.12 (37 °C).

Consider ACUUAGCAAUAUUACGCUGC, for which the “self-splicing fitness (ln)” value reads like this: (30 °C) -3.82 ± 0.32; (37 °C) -2.36 ± 0.22. With AGAUAGCAAUAUUACGCCAC, the “self-splicing fitness (ln)” value (37 °C) is -2.5 ± 0.35.

AUGUAGCAAUAUUACGCAGA: the “self-splicing fitness (ln)” value (30 °C) was -2.74 ± 0.36 and the “self-splicing fitness (ln)” value (37 °C) amounted to 0.109 ± 0.18. For the sequence GAGAAGCAAUAUUACGCCUG, the “self-splicing fitness (ln)” value reads like this: (30 °C) -0.32 ± 0.098; (37 °C) -0.385 ± 0.17. The corresponding values for AGGAAGCAAUAUUACGUGAC are -3.65 ± 0.22 and -2.45 ± 0.15. With CUUGAGCAAUAUUACGAGGA, the “self-splicing fitness (ln)” value (30 °C) is -3.08 ± 0.38.

Take GGCAAGCAAUAUUACGGAUG: the “self-splicing fitness (ln)” value was -2.34 ± 0.15 (30 °C) and -0.798 ± 0.15 (37 °C). Turning to GGCGAGCAAUAUUACGGGGG, the “self-splicing fitness (ln)” value is -3.33 ± 0.2 (30 °C) and -2.64 ± 0.28 (37 °C). Consider CAUGAGCAAUAUUACGCAGC, for which the “self-splicing fitness (ln)” value runs as follows: (30 °C) -3.08 ± 0.38; (37 °C) -2.32 ± 0.34.

For UGUCAGCAAUAUUACGUAAG, the “self-splicing fitness (ln)” value by setting is: (30 °C) -0.352 ± 0.07; (37 °C) 0.0208 ± 0.087. In the case of UACGAGCAAUAUUACGGUGU, the “self-splicing fitness (ln)” value (37 °C) was -3.09 ± 0.29. With UCCCAGCAAUAUUACGCUCA, the “self-splicing fitness (ln)” value (30 °C) is -1.48 ± 0.11 and the “self-splicing fitness (ln)” value (37 °C) is -0.496 ± 0.11.

Regarding GUUAAGCAAUAUUACGUGAU, the “self-splicing fitness (ln)” value was -1.94 ± 0.067 (30 °C) and -1.44 ± 0.082 (37 °C). The corresponding values for CACUAGCAAUAUUACGUCAC are -4.12 ± 0.29 and -2.01 ± 0.21.

For the sequence AGCGAGCAAUAUUACGACCA, the “self-splicing fitness (ln)” value by setting is: (30 °C) -1.37 ± 0.22; (37 °C) -1.08 ± 0.22. Taken in the same sequence, the figures for UUGAAGCAAUAUUACGAGAU were -3.15 ± 0.18 and -2.87 ± 0.23. The corresponding values for UGGAAGCAAUAUUACGCAGC are -2.22 ± 0.42 and -2.6 ± 0.26. The corresponding values for GUUGAGCAAUAUUACGGAUU are -2.6 ± 0.34 and -1.56 ± 0.21. Consider UUAUAGCAAUAUUACGCAUG, for which the “self-splicing fitness (ln)” value is, setting by setting: (30 °C) -1.67 ± 0.25; (37 °C) -0.364 ± 0.23. Consider CACAAGCAAUAUUACGUAUA, for which the “self-splicing fitness (ln)” value reads like this: (30 °C) -2.66 ± 0.13; (37 °C) -2.67 ± 0.16. The corresponding values for AUGUAGCAAUAUUACGUGGA are -1.58 ± 0.22 and -3.15 ± 0.24. Taken in the same sequence, the figures for UCCUAGCAAUAUUACGCCUU were -2.98 ± 0.33 and -2.34 ± 0.35.

On to AACGAGCAAUAUUACGGAAU, for which the “self-splicing fitness (ln)” value by setting is: (30 °C) -2.84 ± 0.24; (37 °C) -1.81 ± 0.22. Taken in the same sequence, the figures for CAGAAGCAAUAUUACGCCGG were -0.314 ± 0.13 and -0.619 ± 0.17.
